Test results as given in the supplement of paper PMC9112550, “Optimization of the antimicrobial peptide Bac7 by deep mutational scanning” (BMC Biology, 2022).

system: Escherichia coli TOP10; assay: shrunken log2 fold change of peptide-encoding DNA abundance (4.5 h post-induction vs induction); higher = less antimicrobial activity (less host growth inhibition); conditions: time post-induction: 4.5 h; library: site-saturation at positions 5, 18, 19, 20
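Also: peptides expressed intracellularly from a pBAD plasmid library in pooled LB shake-flask culture, induced with 0.3% L-arabinose, DNA abundance read by NGS, three biological replicates, DESeq2 with apeglm shrinkage.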

RRIRYRPPRLPRPRPRPKSSPRP and RRIRYRPPRLPRPRPRPHSTPRP are within 0.2 log units of each other in “shrunken log2 fold change” value: -0.147 for the first, -0.181 for the second.

First: RRIRLRPPRLPRPRPRPFGVPRP
Second: RRIRCRPPRLPRPRPRPPIQPRP
The “shrunken log2 fold change” value of the first is lower: 0.028 for the first, 0.369 for the second.

Going from RRIRWRPPRLPRPRPRPLIYPRP to RRIRTRPPRLPRPRPRPDGQPRP, the “shrunken log2 fold change” value rises from -0.299 to 0.0697.

RRIRKRPPRLPRPRPRPSTCPRP and RRIRFRPPRLPRPRPRPLAGPRP are within 0.2 log units of each other in “shrunken log2 fold change” value: -0.0517 for the first, -0.104 for the second.

First: RRIRGRPPRLPRPRPRPTEFPRP
Second: RRIRFRPPRLPRPRPRPRTHPRP
The “shrunken log2 fold change” value of the first is higher: 0.327 for the first, 0.114 for the second.

RRIRFRPPRLPRPRPRPGIHPRP and RRIRRRPPRLPRPRPRPTQPPRP are within 0.2 log units of each other in “shrunken log2 fold change” value: -0.0365 for the first, 0.155 for the second.

RRIRFRPPRLPRPRPRPSEIPRP and RRIRSRPPRLPRPRPRPLLYPRP are within 0.2 log units of each other in “shrunken log2 fold change” value: -0.345 for the first, -0.162 for the second.

RRIRWRPPRLPRPRPRPMSYPRP and RRIRWRPPRLPRPRPRPFPTPRP are within 0.2 log units of each other in “shrunken log2 fold change” value: -0.206 for the first, -0.12 for the second.

Going from RRIRKRPPRLPRPRPRPALKPRP to RRIRCRPPRLPRPRPRPFIVPRP, the “shrunken log2 fold change” value falls from 0.48 to -0.575.

First: RRIRGRPPRLPRPRPRPTYQPRP
Second: RRIRSRPPRLPRPRPRPAHWPRP
The “shrunken log2 fold change” value of the first is lower: 0.169 for the first, 0.416 for the second.

Compared with RRIRKRPPRLPRPRPRPICPPRP, RRIRHRPPRLPRPRPRPMPEPRP is higher in “shrunken log2 fold change” value: -0.122 for the first, 0.283 for the second.

First: RRIRCRPPRLPRPRPRPSPMPRP
Second: RRIRFRPPRLPRPRPRPMSYPRP
The “shrunken log2 fold change” value of the first is higher: 0.0865 for the first, -0.138 for the second.

First: RRIRSRPPRLPRPRPRPPDPPRP
Second: RRIRLRPPRLPRPRPRPCYEPRP
The “shrunken log2 fold change” value of the first is higher: 0.472 for the first, -0.284 for the second.

RRIRIRPPRLPRPRPRPATGPRP and RRIRTRPPRLPRPRPRPQEPPRP are within 0.2 log units of each other in “shrunken log2 fold change” value: -0.119 for the first, -0.0583 for the second.

Going from RRIRRRPPRLPRPRPRPTHWPRP to RRIRKRPPRLPRPRPRPYGFPRP, the “shrunken log2 fold change” value falls from 0.988 to -0.294.

Compared with RRIRVRPPRLPRPRPRPRGRPRP, RRIRYRPPRLPRPRPRPTDHPRP is lower in “shrunken log2 fold change” value: 0.197 for the first, -0.254 for the second.

First: RRIRYRPPRLPRPRPRPKVLPRP
Second: RRIRARPPRLPRPRPRPGAEPRP
The “shrunken log2 fold change” value of the first is lower: -0.04 for the first, 1.1 for the second.

First: RRIRERPPRLPRPRPRPSLIPRP
Second: RRIRYRPPRLPRPRPRPDTHPRP
The “shrunken log2 fold change” value of the first is lower: -2.26 for the first, -0.22 for the second.

RRIRSRPPRLPRPRPRPIWFPRP and RRIRNRPPRLPRPRPRPNSPPRP are within 0.2 log units of each other in “shrunken log2 fold change” value: 0.112 for the first, 0.0941 for the second.

Going from RRIRNRPPRLPRPRPRPKMPPRP to RRIRCRPPRLPRPRPRPKMMPRP, the “shrunken log2 fold change” value falls from 0.341 to -0.113.

RRIRTRPPRLPRPRPRPFLEPRP and RRIRCRPPRLPRPRPRPYPFPRP are within 0.2 log units of each other in “shrunken log2 fold change” value: -0.417 for the first, -0.241 for the second.

RRIRRRPPRLPRPRPRPVTEPRP and RRIRMRPPRLPRPRPRPSKEPRP are within 0.2 log units of each other in “shrunken log2 fold change” value: 0.285 for the first, 0.203 for the second.

Going from RRIRPRPPRLPRPRPRPDKKPRP to RRIRARPPRLPRPRPRPPGQPRP, the “shrunken log2 fold change” value rises from -0.429 to 0.0736.

Compared with RRIRDRPPRLPRPRPRPLSGPRP, RRIRRRPPRLPRPRPRPNWTPRP is lower in “shrunken log2 fold change” value: -0.0838 for the first, -0.285 for the second.

Going from RRIRWRPPRLPRPRPRPPSHPRP to RRIRGRPPRLPRPRPRPCGLPRP, the “shrunken log2 fold change” value rises from 0.163 to 0.641.

Going from RRIRSRPPRLPRPRPRPILYPRP to RRIRCRPPRLPRPRPRPQCWPRP, the “shrunken log2 fold change” value rises from -0.481 to 0.0604.

RRIRVRPPRLPRPRPRPFHDPRP and RRIRNRPPRLPRPRPRPSLRPRP are within 0.2 log units of each other in “shrunken log2 fold change” value: -0.0143 for the first, -0.00371 for the second.

First: RRIRWRPPRLPRPRPRPGNSPRP
Second: RRIRPRPPRLPRPRPRPYTDPRP
The “shrunken log2 fold change” value of the first is higher: -0.22 for the first, -0.562 for the second.

Compared with RRIRDRPPRLPRPRPRPWDGPRP, RRIRERPPRLPRPRPRPTRWPRP is higher in “shrunken log2 fold change” value: -0.0761 for the first, 0.353 for the second.

Going from RRIRCRPPRLPRPRPRPVAPPRP to RRIRERPPRLPRPRPRPWVGPRP, the “shrunken log2 fold change” value falls from 0.436 to 0.0249.

RRIRPRPPRLPRPRPRPVMQPRP and RRIRWRPPRLPRPRPRPCHKPRP are within 0.2 log units of each other in “shrunken log2 fold change” value: 0.136 for the first, -0.0267 for the second.

First: RRIRTRPPRLPRPRPRPMNFPRP
Second: RRIRYRPPRLPRPRPRPDHQPRP
The “shrunken log2 fold change” value of the first is lower: -0.638 for the first, -0.167 for the second.

Going from RRIRRRPPRLPRPRPRPYDRPRP to RRIRFRPPRLPRPRPRPMLWPRP, the “shrunken log2 fold change” value rises from -0.164 to 0.165.

Compared with RRIRERPPRLPRPRPRPQCRPRP, RRIRIRPPRLPRPRPRPAGVPRP is higher in “shrunken log2 fold change” value: -0.401 for the first, 0.293 for the second.

RRIRERPPRLPRPRPRPTDRPRP and RRIRKRPPRLPRPRPRPSNLPRP are within 0.2 log units of each other in “shrunken log2 fold change” value: 0.0616 for the first, -0.0133 for the second.

Compared with RRIRTRPPRLPRPRPRPVTYPRP, RRIRSRPPRLPRPRPRPTVFPRP is higher in “shrunken log2 fold change” value: 0.0141 for the first, 0.222 for the second.

First: RRIRTRPPRLPRPRPRPMIYPRP
Second: RRIRWRPPRLPRPRPRPNMCPRP
The “shrunken log2 fold change” value of the first is lower: -0.465 for the first, -0.0387 for the second.

Compared with RRIRFRPPRLPRPRPRPVDVPRP, RRIRERPPRLPRPRPRPDCCPRP is higher in “shrunken log2 fold change” value: -0.44 for the first, -0.157 for the second.

RRIRQRPPRLPRPRPRPHPIPRP and RRIRTRPPRLPRPRPRPQCPPRP are within 0.2 log units of each other in “shrunken log2 fold change” value: -0.133 for the first, -0.125 for the second.

RRIRYRPPRLPRPRPRPECEPRP and RRIRERPPRLPRPRPRPVIDPRP are within 0.2 log units of each other in “shrunken log2 fold change” value: -0.185 for the first, -0.0264 for the second.

RRIRMRPPRLPRPRPRPLNIPRP and RRIRNRPPRLPRPRPRPQWDPRP are within 0.2 log units of each other in “shrunken log2 fold change” value: -0.163 for the first, -0.0901 for the second.

Going from RRIRPRPPRLPRPRPRPGMQPRP to RRIRFRPPRLPRPRPRPSEMPRP, the “shrunken log2 fold change” value falls from 0.515 to -0.148.

RRIRSRPPRLPRPRPRPCEMPRP and RRIRKRPPRLPRPRPRPNVQPRP are within 0.2 log units of each other in “shrunken log2 fold change” value: 0.0253 for the first, 0.179 for the second.

RRIRGRPPRLPRPRPRPNSDPRP and RRIRMRPPRLPRPRPRPDNHPRP are within 0.2 log units of each other in “shrunken log2 fold change” value: -0.0204 for the first, -0.21 for the second.

RRIRDRPPRLPRPRPRPTGRPRP and RRIRNRPPRLPRPRPRPRELPRP are within 0.2 log units of each other in “shrunken log2 fold change” value: 0.134 for the first, 0.287 for the second.

Going from RRIRGRPPRLPRPRPRPGIYPRP to RRIRGRPPRLPRPRPRPHRGPRP, the “shrunken log2 fold change” value falls from 0.641 to 0.0302.

RRIRKRPPRLPRPRPRPGDVPRP and RRIRVRPPRLPRPRPRPVVRPRP are within 0.2 log units of each other in “shrunken log2 fold change” value: 0.278 for the first, 0.129 for the second.

Compared with RRIRNRPPRLPRPRPRPDGRPRP, RRIRYRPPRLPRPRPRPKYIPRP is lower in “shrunken log2 fold change” value: -0.109 for the first, -0.665 for the second.

RRIRCRPPRLPRPRPRPDKMPRP and RRIRPRPPRLPRPRPRPCVLPRP are within 0.2 log units of each other in “shrunken log2 fold change” value: -0.156 for the first, -0.0304 for the second.

RRIRRRPPRLPRPRPRPSDQPRP and RRIRQRPPRLPRPRPRPVMFPRP are within 0.2 log units of each other in “shrunken log2 fold change” value: 0.0918 for the first, -0.0919 for the second.

RRIRIRPPRLPRPRPRPWPCPRP and RRIRSRPPRLPRPRPRPKHAPRP are within 0.2 log units of each other in “shrunken log2 fold change” value: -0.0182 for the first, 0.143 for the second.

Going from RRIRIRPPRLPRPRPRPYSNPRP to RRIRYRPPRLPRPRPRPMTIPRP, the “shrunken log2 fold change” value falls from -0.385 to -0.936.

Compared with RRIRERPPRLPRPRPRPFQDPRP, RRIRGRPPRLPRPRPRPGMTPRP is higher in “shrunken log2 fold change” value: 0.0039 for the first, 0.792 for the second.

RRIRNRPPRLPRPRPRPRIPPRP and RRIRPRPPRLPRPRPRPDFQPRP are within 0.2 log units of each other in “shrunken log2 fold change” value: 0.157 for the first, 0.262 for the second.

For RRIRARPPRLPRPRPRPLSIPRP, the “shrunken log2 fold change” value was -0.308.
